# B1: Autophagy-related protein 13 (Saccharomyces cerevisiae), Q06628 (parent)
# chain: MVAEEDIEKQVLQLIDSFFLKTTLLICSTESSRYQSSTENIFLFDDTWFEDHSELVSELPEIISKWSHYDGRKELPPLVVETYLDLRQLNSSHLVRLKDHEGHLWNVCKGTKKQEIVMERWLIELDNSSPTFKSYSEDETDVNELSKQLVLLFRYLLTLIQLLPTTELYQLLIKSYNGPQNEGSSNPITSTGPLVSIRTCVLDGSKPILSKGRIGLSKPIINTYSNALNESNLPAHLDQKKITPVWTKFGLLRVSVSYRRDWKFEINNTNDELFSARHASVSHNSQGPQNQPEQEGQSDQDIGKRQPQFQQQQQPQQQQQQQQQQQRQHQVQTQQQRQIPDRRSLSLSPCTRANSFEPQSWQKKVYPISRPVQPFKVGSIGSQSASRNPSNSSFFNQPPVHRPSMSSNYGPQMNIEGTSVGSTSKYSSSFGNIRRHSSVKTTENAEKVSKAVKSPLQPQESQEDLMDFVKLLEEKPDLTIKKTSGNNPPNINISDSLIRYQNLKPSNDLLSEDLSVSLSMDPNHTYHRGRSDSHSPLPSISPSMHYGSLNSRMSQGANASHLIARGGGNSSTSALNSRRNSLDKSSNKQGMSGLPPIFGGESTSYHHDNKIQKYNQLGVEEDDDDENDRLLNQMGNSATKFKSSISPRSIDSISSSFIKSRIPIRQPYHYSQPTTAPFQAQAKFHKPANKLIDNGNRSNSNNNNHNGNDAVGVMHNDEDDQDDDLVFFMSDMNLSKEG
# partner: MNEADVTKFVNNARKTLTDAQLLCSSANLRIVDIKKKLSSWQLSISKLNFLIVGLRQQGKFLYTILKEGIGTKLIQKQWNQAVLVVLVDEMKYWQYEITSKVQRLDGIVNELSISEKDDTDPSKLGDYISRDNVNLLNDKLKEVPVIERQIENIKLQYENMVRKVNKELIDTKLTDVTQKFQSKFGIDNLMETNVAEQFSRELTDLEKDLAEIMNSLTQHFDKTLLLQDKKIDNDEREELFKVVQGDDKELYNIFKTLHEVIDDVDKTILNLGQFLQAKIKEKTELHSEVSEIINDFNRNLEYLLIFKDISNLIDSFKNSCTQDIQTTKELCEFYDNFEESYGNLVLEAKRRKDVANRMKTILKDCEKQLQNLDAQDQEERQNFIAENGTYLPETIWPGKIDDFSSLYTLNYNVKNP
# B2: Autophagy-related protein 13 (Saccharomyces cerevisiae), Q06628 (parent)
# chain: B1 chain
# partner: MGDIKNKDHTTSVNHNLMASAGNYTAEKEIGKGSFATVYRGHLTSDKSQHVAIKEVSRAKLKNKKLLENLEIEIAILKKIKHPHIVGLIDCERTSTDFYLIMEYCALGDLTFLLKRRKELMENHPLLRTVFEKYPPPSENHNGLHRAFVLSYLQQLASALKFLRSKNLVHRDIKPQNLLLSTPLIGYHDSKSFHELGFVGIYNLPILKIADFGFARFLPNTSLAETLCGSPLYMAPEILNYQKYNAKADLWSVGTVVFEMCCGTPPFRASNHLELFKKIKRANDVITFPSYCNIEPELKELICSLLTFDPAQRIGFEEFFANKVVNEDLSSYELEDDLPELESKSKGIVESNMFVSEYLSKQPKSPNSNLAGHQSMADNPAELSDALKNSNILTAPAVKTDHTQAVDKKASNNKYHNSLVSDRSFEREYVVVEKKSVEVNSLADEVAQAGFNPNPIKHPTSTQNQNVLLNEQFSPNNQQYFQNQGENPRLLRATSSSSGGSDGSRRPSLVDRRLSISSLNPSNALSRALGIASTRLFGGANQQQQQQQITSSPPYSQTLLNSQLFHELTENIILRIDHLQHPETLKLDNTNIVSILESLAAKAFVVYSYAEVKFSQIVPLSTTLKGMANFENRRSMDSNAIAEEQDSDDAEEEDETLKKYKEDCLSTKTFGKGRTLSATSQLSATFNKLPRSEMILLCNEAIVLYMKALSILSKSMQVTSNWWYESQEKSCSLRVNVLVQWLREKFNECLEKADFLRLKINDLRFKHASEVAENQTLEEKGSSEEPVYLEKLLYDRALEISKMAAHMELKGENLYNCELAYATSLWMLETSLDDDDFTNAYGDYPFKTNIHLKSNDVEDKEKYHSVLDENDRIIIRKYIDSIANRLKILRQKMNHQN
# B3: Autophagy-related protein 17 (Saccharomyces cerevisiae), Q06410 (parent)
# chain: B1 partner
# partner: B1 chain
# Variants of: B1
# Settings: with atg17_yeast ATG17, Q06410
row,effect of a mutation on the interaction,Variant
1,disrupting interaction strength,S428A;S429A
2,disrupting interaction strength,R434A;R435A
3,disrupting interaction strength,F430A;I433A

# Variants of: B1
# Settings: with atg17_yeast ATG17, Q06410
# Remark: another data set of the same source
row,effect of a mutation on the interaction,Variant
1,disrupting interaction strength,S429D

# Variants of: B2
# Settings: with atg1_yeast ATG1, P53104
row,effect of a mutation on the interaction,Variant
1,disrupting interaction strength,L472A
2,disrupting interaction strength,F468A

# Variants of: B2
# Settings: with atg1_yeast ATG1, P53104
# Remark: another data set of the same source
row,effect of a mutation on the interaction,Variant
1,decreasing interaction strength,F468A

# Variants of: B2
# Settings: with atg1_yeast ATG1, P53104
# Remark: another data set of the same source
row,effect of a mutation on the interaction,Variant
1,disrupting interaction strength,F468A;L472A

# Variants of: B3
# Settings: with atg13_yeast ATG13, Q06628
row,Variant,effect of a mutation on the interaction
1,MNEADVTKFVNNARKTLTDAQLLCSSANLRIVDIKKKLSSWQLSISKLNFLIVGLRQQGKFLYTILKEGIGTKLIQKQWNQAVLVVLVDEMKYWQYEITSKVQRLDGIVNELSISEKDDTDPSKLGDYISRDNVNLLNDKLKEVPVIERQIENIKLQYENMVRKVNKELIDTKLTDVTQKFQSKFGIDNLMETNVAEQFSRELTDLEKDLAEAMNALTQHFDKTLLLQDKKIDNDEREELFKVVQGDDKELYNIFKTLHEVIDDVDKTILNLGQFLQAKIKEKTELHSEVSEIINDFNRNLEYLLIFKDISNLIDSFKNSCTQDIQTTKELCEFYDNFEESYGNLVLEAKRRKDVANRMKTILKDCEKQLQNLDAQDQEERQNFIAENGTYLPETIWPGKIDDFSSLYTLNYNVKNP [I213A;S216A],decreasing interaction strength
2,MNEADVTKFVNNARKTLTDAQLLCSSANLRIVDIKKKLSSWQLSISKLNFLIVGLRQQGKFLYTILKEGIGTKLIQKQWNQAVLVVLVDEMKYWQYEITSKVQRLDGIVNELSISEKDDTDPSKLGDYISRDNVNLLNDKLKEVPVIERQIENIKLQYENMVRKVNKELIDTKLTDVTQKFQSKFGIDNLMETNVAEQFSRELTDLEKDLAEIMNSLTQHFDKTLLLQDKKIDNDEREELFKVVQGADKELYNIFKTLHEVIDDVDKTILNLGQFLQAKIKEKTELHSEVSEIINDFNRNLEYLLIFKDISNLIDSFKNSCTQDIQTTKELCEFYDNFEESYGNLVLEAKRRKDVANRMKTILKDCEKQLQNLDAQDQEERQNFIAENGTYLPETIWPGKIDDFSSLYTLNYNVKNP [D247A],disrupting interaction strength

# The next lines start with the values.
row,effect of a mutation on the interaction,Variant
1,disrupting interaction strength,MNEADVTKFVNNARKTLTDAQLLCSSANLRIVDIKKKLSSWQLSISKLNFLIVGLRQQGKFLYTILKEGIGTKLIQKQWNQAVLVVLVDEMKYWQYEITSKVQRLDGIVNELSISEKDDTDPSKLGDYISRDNVNLLNDKLKEVPVIERQIENIKLQYENMVRKVNKELIDTKLTDVTQKFQSKFGIDNLMETNVAEQFSRELTDLEKDLAEIMNSLTQHFDKTLLLQDKKIDNDEREELFKVVQGADKALYNIFKTLHEVIDDVDKTILNLGQFLQAKIKEKTELHSEVSEIINDFNRNLEYLLIFKDISNLIDSFKNSCTQDIQTTKELCEFYDNFEESYGNLVLEAKRRKDVANRMKTILKDCEKQLQNLDAQDQEERQNFIAENGTYLPETIWPGKIDDFSSLYTLNYNVKNP [D247A;E250A]
2,decreasing interaction strength,MNEADVTKFVNNARKTLTDAQLLCSSANLRIVDIKKKLSSWQLSISKLNFLIVGLRQQGKFLYTILKEGIGTKLIQKQWNQAVLVVLVDEMKYWQYEITSKVQRLDGIVNELSISEKDDTDPSKLGDYISRDNVNLLNDKLKEVPVIERQIENIKLQYENMVRKVNKELIDTKLTDVTQKFQSKFGIDNLMETNVAEQFSRELTDLEKDLAEIMNSLTQHFDKTLLLQDKKIDNDEREEAFKAVQGDDKELYNIFKTLHEVIDDVDKTILNLGQFLQAKIKEKTELHSEVSEIINDFNRNLEYLLIFKDISNLIDSFKNSCTQDIQTTKELCEFYDNFEESYGNLVLEAKRRKDVANRMKTILKDCEKQLQNLDAQDQEERQNFIAENGTYLPETIWPGKIDDFSSLYTLNYNVKNP [L240A;V243A]
